Here are results for 16 molecules from patent publication US20240199746A1 (published 2024).

Assay [1] deals with T1, Ax1 protein, extracellular domain (human, UniProt P30530 26-451).
T1 construct: extracellular domain; also called Axl; Ark
T1 sequence (looked up): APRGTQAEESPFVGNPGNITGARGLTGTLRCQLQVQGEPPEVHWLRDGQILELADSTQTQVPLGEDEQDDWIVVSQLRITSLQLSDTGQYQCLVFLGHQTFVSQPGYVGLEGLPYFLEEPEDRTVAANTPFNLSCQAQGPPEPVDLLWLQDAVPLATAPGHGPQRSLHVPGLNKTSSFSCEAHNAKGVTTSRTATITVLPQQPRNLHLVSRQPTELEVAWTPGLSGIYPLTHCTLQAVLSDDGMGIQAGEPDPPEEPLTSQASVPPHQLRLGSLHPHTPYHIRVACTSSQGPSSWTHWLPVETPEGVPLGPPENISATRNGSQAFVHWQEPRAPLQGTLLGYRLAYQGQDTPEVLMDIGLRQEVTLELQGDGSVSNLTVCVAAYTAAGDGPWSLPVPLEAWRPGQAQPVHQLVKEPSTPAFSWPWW
Description: ELISA, mutant diluted 1:3. An excerpt:
(§1) The DNA encoding the wild-type antibody was evolved to generate a mutant antibody library using Comprehensive Positional Evolution (CPE), which each position in the template antibody is randomized one at a time. Each mutant antibody in the library has only one single point mutation. The mutant antibodies in the library were generated by simultaneously screening for selective binding affinity to Ax1 at pH 6.0 over pH 7.4 by ELISA. Two mutant antibody dilutions were used: 1:3 and 1:9 dilutions.

Assay [2] has as its target T1, Ax1 protein, extracellular domain. The assay can be described thus: ELISA, mutant diluted 1:9.
Text: as §1

B1: HC-P053N (antibody, V domains shown)
VH: EVQLVQSGAEVKKPGATVKISCKVSGYSFTGHTMNWIRQPPGKGLEWIGLIKNSNGGTSYNQKFKGRVTISADKSISTAYLQWSSLKASDTAMYYCAHGHYESYFAMDYWGQGTLVTVSS
VL: DIQMTQSPSSLSASVGDRVTITCKASQDVSSAVAWYQQKPGQAPRLLIYWASTRHTGVPSRFSGSGSGTEFTLTISSLQPDDFATYYCQEHFSTPLTFGQGTKVEIK
notes: CPE single point mutant
Take B1: in assay [1], the “Affinity ELISA CPE mutant ratio (1:3, pH 6.0/7.4)” value is 1.4. In addition, the “Affinity ELISA CPE mutant ratio (1:9, pH 6.0/7.4)” value in assay [2] amounted to 1.89.

B2: LC-A032L (antibody, V domains shown)
VH: EVQLVQSGAEVKKPGATVKISCKVSGYSFTGHTMNWIRQPPGKGLEWIGLIKPSNGGTSYNQKFKGRVTISADKSISTAYLQWSSLKASDTAMYYCAHGHYESYFAMDYWGQGTLVTVSS
VL: DIQMTQSPSSLSASVGDRVTITCKASQDVSSLVAWYQQKPGQAPRLLIYWASTRHTGVPSRFSGSGSGTEFTLTISSLQPDDFATYYCQEHFSTPLTFGQGTKVEIK
notes: CPE single point mutant
As to B2, the “Affinity ELISA CPE mutant ratio (1:3, pH 6.0/7.4)” value in assay [1] is 1.9. Moreover, the “Affinity ELISA CPE mutant ratio (1:9, pH 6.0/7.4)” value in assay [2] came out at 2.27.

B3: HC-Y104P (antibody, V domains shown)
VH: EVQLVQSGAEVKKPGATVKISCKVSGYSFTGHTMNWIRQPPGKGLEWIGLIKPSNGGTSYNQKFKGRVTISADKSISTAYLQWSSLKASDTAMYYCAHGHYESPFAMDYWGQGTLVTVSS
VL: DIQMTQSPSSLSASVGDRVTITCKASQDVSSAVAWYQQKPGQAPRLLIYWASTRHTGVPSRFSGSGSGTEFTLTISSLQPDDFATYYCQEHFSTPLTFGQGTKVEIK
notes: CPE single point mutant
As for B3, the “Affinity ELISA CPE mutant ratio (1:3, pH 6.0/7.4)” value in assay [1] was determined as 2.54. For the same molecule, the “Affinity ELISA CPE mutant ratio (1:9, pH 6.0/7.4)” value in assay [2] came to 2.42.

B4: LC-A034D (antibody, V domains shown)
VH: EVQLVQSGAEVKKPGATVKISCKVSGYSFTGHTMNWIRQPPGKGLEWIGLIKPSNGGTSYNQKFKGRVTISADKSISTAYLQWSSLKASDTAMYYCAHGHYESYFAMDYWGQGTLVTVSS
VL: DIQMTQSPSSLSASVGDRVTITCKASQDVSSAVDWYQQKPGQAPRLLIYWASTRHTGVPSRFSGSGSGTEFTLTISSLQPDDFATYYCQEHFSTPLTFGQGTKVEIK
notes: CPE single point mutant
On to B4, for which the “Affinity ELISA CPE mutant ratio (1:3, pH 6.0/7.4)” value in assay [1] came to 3. Moreover, the “Affinity ELISA CPE mutant ratio (1:9, pH 6.0/7.4)” value in assay [2] turned out to be 2.6.

B5: HC-T033I (antibody, V domains shown)
VH: EVQLVQSGAEVKKPGATVKISCKVSGYSFTGHIMNWIRQPPGKGLEWIGLIKPSNGGTSYNQKFKGRVTISADKSISTAYLQWSSLKASDTAMYYCAHGHYESYFAMDYWGQGTLVTVSS
VL: DIQMTQSPSSLSASVGDRVTITCKASQDVSSAVAWYQQKPGQAPRLLIYWASTRHTGVPSRFSGSGSGTEFTLTISSLQPDDFATYYCQEHFSTPLTFGQGTKVEIK
notes: CPE single point mutant
In the case of B5, in assay [1], the “Affinity ELISA CPE mutant ratio (1:3, pH 6.0/7.4)” value was 1.59. For the same molecule, the “Affinity ELISA CPE mutant ratio (1:9, pH 6.0/7.4)” value in assay [2] was found to be 1.

B6: HC-S059I (antibody, V domains shown)
VH: EVQLVQSGAEVKKPGATVKISCKVSGYSFTGHTMNWIRQPPGKGLEWIGLIKPSNGGTIYNQKFKGRVTISADKSISTAYLQWSSLKASDTAMYYCAHGHYESYFAMDYWGQGTLVTVSS
VL: DIQMTQSPSSLSASVGDRVTITCKASQDVSSAVAWYQQKPGQAPRLLIYWASTRHTGVPSRFSGSGSGTEFTLTISSLQPDDFATYYCQEHFSTPLTFGQGTKVEIK
notes: CPE single point mutant
For B6, the “Affinity ELISA CPE mutant ratio (1:3, pH 6.0/7.4)” value in assay [1] amounted to 30.5. In addition, the “Affinity ELISA CPE mutant ratio (1:9, pH 6.0/7.4)” value in assay [2] was found to be 2.06.

B7: HC-S103D (antibody, V domains shown)
VH: EVQLVQSGAEVKKPGATVKISCKVSGYSFTGHTMNWIRQPPGKGLEWIGLIKPSNGGTSYNQKFKGRVTISADKSISTAYLQWSSLKASDTAMYYCAHGHYEDYFAMDYWGQGTLVTVSS
VL: DIQMTQSPSSLSASVGDRVTITCKASQDVSSAVAWYQQKPGQAPRLLIYWASTRHTGVPSRFSGSGSGTEFTLTISSLQPDDFATYYCQEHFSTPLTFGQGTKVEIK
notes: CPE single point mutant
In the case of B7, the “Affinity ELISA CPE mutant ratio (1:3, pH 6.0/7.4)” value in assay [1] amounted to 4.24. Further, in assay [2], the “Affinity ELISA CPE mutant ratio (1:9, pH 6.0/7.4)” value was 2.23.

B8: HC-T030A (antibody, V domains shown)
VH: EVQLVQSGAEVKKPGATVKISCKVSGYSFAGHTMNWIRQPPGKGLEWIGLIKPSNGGTSYNQKFKGRVTISADKSISTAYLQWSSLKASDTAMYYCAHGHYESYFAMDYWGQGTLVTVSS
VL: DIQMTQSPSSLSASVGDRVTITCKASQDVSSAVAWYQQKPGQAPRLLIYWASTRHTGVPSRFSGSGSGTEFTLTISSLQPDDFATYYCQEHFSTPLTFGQGTKVEIK
notes: CPE single point mutant
On to B8, for which, in assay [1], the “Affinity ELISA CPE mutant ratio (1:3, pH 6.0/7.4)” value was found to be 1.29. For the same molecule, the “Affinity ELISA CPE mutant ratio (1:9, pH 6.0/7.4)” value in assay [2] turned out to be 1.76.

B9: LC-A034N (antibody, V domains shown)
VH: EVQLVQSGAEVKKPGATVKISCKVSGYSFTGHTMNWIRQPPGKGLEWIGLIKPSNGGTSYNQKFKGRVTISADKSISTAYLQWSSLKASDTAMYYCAHGHYESYFAMDYWGQGTLVTVSS
VL: DIQMTQSPSSLSASVGDRVTITCKASQDVSSAVNWYQQKPGQAPRLLIYWASTRHTGVPSRFSGSGSGTEFTLTISSLQPDDFATYYCQEHFSTPLTFGQGTKVEIK
notes: CPE single point mutant
For B9, the “Affinity ELISA CPE mutant ratio (1:3, pH 6.0/7.4)” value in assay [1] amounted to 2.63. Besides, the “Affinity ELISA CPE mutant ratio (1:9, pH 6.0/7.4)” value in assay [2] is 2.4.

B10: LC-A051N (antibody, V domains shown)
VH: EVQLVQSGAEVKKPGATVKISCKVSGYSFTGHTMNWIRQPPGKGLEWIGLIKPSNGGTSYNQKFKGRVTISADKSISTAYLQWSSLKASDTAMYYCAHGHYESYFAMDYWGQGTLVTVSS
VL: DIQMTQSPSSLSASVGDRVTITCKASQDVSSAVAWYQQKPGQAPRLLIYWNSTRHTGVPSRFSGSGSGTEFTLTISSLQPDDFATYYCQEHFSTPLTFGQGTKVEIK
notes: CPE single point mutant
On to B10, for which the “Affinity ELISA CPE mutant ratio (1:3, pH 6.0/7.4)” value in assay [1] was 1.41. Moreover, in assay [2], the “Affinity ELISA CPE mutant ratio (1:9, pH 6.0/7.4)” value amounted to 2.2.

B11: HC-S103Q (antibody, V domains shown)
VH: EVQLVQSGAEVKKPGATVKISCKVSGYSFTGHTMNWIRQPPGKGLEWIGLIKPSNGGTSYNQKFKGRVTISADKSISTAYLQWSSLKASDTAMYYCAHGHYEQYFAMDYWGQGTLVTVSS
VL: DIQMTQSPSSLSASVGDRVTITCKASQDVSSAVAWYQQKPGQAPRLLIYWASTRHTGVPSRFSGSGSGTEFTLTISSLQPDDFATYYCQEHFSTPLTFGQGTKVEIK
notes: CPE single point mutant
On to B11, for which, in assay [1], the “Affinity ELISA CPE mutant ratio (1:3, pH 6.0/7.4)” value was determined as 0.912. Moreover, the “Affinity ELISA CPE mutant ratio (1:9, pH 6.0/7.4)” value in assay [2] was found to be 2.26.

B12: HC-Y101N (antibody, V domains shown)
VH: EVQLVQSGAEVKKPGATVKISCKVSGYSFTGHTMNWIRQPPGKGLEWIGLIKPSNGGTSYNQKFKGRVTISADKSISTAYLQWSSLKASDTAMYYCAHGHNESYFAMDYWGQGTLVTVSS
VL: DIQMTQSPSSLSASVGDRVTITCKASQDVSSAVAWYQQKPGQAPRLLIYWASTRHTGVPSRFSGSGSGTEFTLTISSLQPDDFATYYCQEHFSTPLTFGQGTKVEIK
notes: CPE single point mutant
As to B12, the “Affinity ELISA CPE mutant ratio (1:3, pH 6.0/7.4)” value in assay [1] came out at 2.17. Besides, in assay [2], the “Affinity ELISA CPE mutant ratio (1:9, pH 6.0/7.4)” value was determined as 2.91.

B13: LC-A051I (antibody, V domains shown)
VH: EVQLVQSGAEVKKPGATVKISCKVSGYSFTGHTMNWIRQPPGKGLEWIGLIKPSNGGTSYNQKFKGRVTISADKSISTAYLQWSSLKASDTAMYYCAHGHYESYFAMDYWGQGTLVTVSS
VL: DIQMTQSPSSLSASVGDRVTITCKASQDVSSAVAWYQQKPGQAPRLLIYWISTRHTGVPSRFSGSGSGTEFTLTISSLQPDDFATYYCQEHFSTPLTFGQGTKVEIK
notes: CPE single point mutant
Regarding B13, in assay [1], the “Affinity ELISA CPE mutant ratio (1:3, pH 6.0/7.4)” value amounted to 2.24. Also, in assay [2], the “Affinity ELISA CPE mutant ratio (1:9, pH 6.0/7.4)” value was 2.14.

B14: LC-A032M (antibody, V domains shown)
VH: EVQLVQSGAEVKKPGATVKISCKVSGYSFTGHTMNWIRQPPGKGLEWIGLIKPSNGGTSYNQKFKGRVTISADKSISTAYLQWSSLKASDTAMYYCAHGHYESYFAMDYWGQGTLVTVSS
VL: DIQMTQSPSSLSASVGDRVTITCKASQDVSSMVAWYQQKPGQAPRLLIYWASTRHTGVPSRFSGSGSGTEFTLTISSLQPDDFATYYCQEHFSTPLTFGQGTKVEIK
notes: CPE single point mutant
Turning to B14, in assay [1], the “Affinity ELISA CPE mutant ratio (1:3, pH 6.0/7.4)” value came to 4.76. The “Affinity ELISA CPE mutant ratio (1:9, pH 6.0/7.4)” value in assay [2] turned out to be 2.92.

B15: HC-S059T (antibody, V domains shown)
VH: EVQLVQSGAEVKKPGATVKISCKVSGYSFTGHTMNWIRQPPGKGLEWIGLIKPSNGGTTYNQKFKGRVTISADKSISTAYLQWSSLKASDTAMYYCAHGHYESYFAMDYWGQGTLVTVSS
VL: DIQMTQSPSSLSASVGDRVTITCKASQDVSSAVAWYQQKPGQAPRLLIYWASTRHTGVPSRFSGSGSGTEFTLTISSLQPDDFATYYCQEHFSTPLTFGQGTKVEIK
notes: CPE single point mutant
For B15, the “Affinity ELISA CPE mutant ratio (1:3, pH 6.0/7.4)” value in assay [1] came out at 1.02. The “Affinity ELISA CPE mutant ratio (1:9, pH 6.0/7.4)” value in assay [2] was 1.93.

B16: LC-A034Q (antibody, V domains shown)
VH: EVQLVQSGAEVKKPGATVKISCKVSGYSFTGHTMNWIRQPPGKGLEWIGLIKPSNGGTSYNQKFKGRVTISADKSISTAYLQWSSLKASDTAMYYCAHGHYESYFAMDYWGQGTLVTVSS
VL: DIQMTQSPSSLSASVGDRVTITCKASQDVSSAVQWYQQKPGQAPRLLIYWASTRHTGVPSRFSGSGSGTEFTLTISSLQPDDFATYYCQEHFSTPLTFGQGTKVEIK
notes: CPE single point mutant
As for B16, in assay [1], the “Affinity ELISA CPE mutant ratio (1:3, pH 6.0/7.4)” value amounted to 2. The “Affinity ELISA CPE mutant ratio (1:9, pH 6.0/7.4)” value in assay [2] worked out at 1.41.
